Assay results: paper PMC6625990, “Structural underpinnings of Ric8A function as a G-protein α-subunit chaperone and guanine-nucleotide exchange factor” (Nature Communications, 2019)
Residue numbers refer to the chain shown, from its start. In names and notes the source's numbering stands. Like-named read-outs stand apart in the source and are kept apart here.

B1: A173W: A173 mutant of Ric8A1–492, printed A173W in figures and source data, A173F in text (protein)
chain: MEPRAVADALETGEEDVVMEALRAYNRENSQSFTFDDAQQEDRKRLAKLLVSVLEQGLPPSRRVIWLQSIRILSRDRSCLDSFTSRRSLQALACYAGISASQGSVPEPLNMDVVLESLKCLCNLVLSSPVAQALAAEAGLVVRLAERVGLCRQSSFPHDVQFFDLRLLFLLTFLRTDVRQQLFQELQGVRLLTRALELTLGMTEGERHPELLPPQETERAMEILKVLFNITFDSIKREVDEEDAALYRHLGTLLRHCVMLAAAGDRTEELHGHAVNLLGNLPVKCLDVLLTLEPHEGSLEFLGVNMDVIRVLLSFMEKRLHQTHRLKESVAPVLSVLTECARMHRPARKFLKAQVLPPLRDVRTRPEVGELLRNKLVRLMTHLDTDVKRVAAEFLFVLCSESVPRFIKYTGYGNAAGLLAARGLMAGGRPEGQYSEDEDTDTDEYKEAKASINPVTGRVEEKPPNPMEGMTEEQKEHEAMKLVNMFDKLSRH
modifications: left off: His6, N-terminal, state not stated
B2: N123E: N123E mutant of Ric8A1–492 (protein, UniProt Q5E9J8 1-492, looked up, variant N123E)
chain: B1 chain with N123E, F173A
modifications: residues 1-492
B3: F169R: F169R mutant of Ric8A1–492 (protein)
chain: B1 chain with F169R, F173A
modifications: left off: His6, N-terminal, state not stated
B4: Ric8A1–426: bovine Ric8A construct lacking the C-terminal region, residues 1–426 (protein)
chain: MEPRAVADALETGEEDVVMEALRAYNRENSQSFTFDDAQQEDRKRLAKLLVSVLEQGLPPSRRVIWLQSIRILSRDRSCLDSFTSRRSLQALACYAGISASQGSVPEPLNMDVVLESLKCLCNLVLSSPVAQALAAEAGLVVRLAERVGLCRQSSFPHDVQFFDLRLLFLLTALRTDVRQQLFQELQGVRLLTRALELTLGMTEGERHPELLPPQETERAMEILKVLFNITFDSIKREVDEEDAALYRHLGTLLRHCVMLAAAGDRTEELHGHAVNLLGNLPVKCLDVLLTLEPHEGSLEFLGVNMDVIRVLLSFMEKRLHQTHRLKESVAPVLSVLTECARMHRPARKFLKAQVLPPLRDVRTRPEVGELLRNKLVRLMTHLDTDVKRVAAEFLFVLCSESVPRFIKYTGYGNAAGLLAARGLMA
modifications: left off: His6, N-terminal, state not stated
B5: Ric8A1–452: bovine Ric8A construct, residues 1–452 (protein)
chain: MEPRAVADALETGEEDVVMEALRAYNRENSQSFTFDDAQQEDRKRLAKLLVSVLEQGLPPSRRVIWLQSIRILSRDRSCLDSFTSRRSLQALACYAGISASQGSVPEPLNMDVVLESLKCLCNLVLSSPVAQALAAEAGLVVRLAERVGLCRQSSFPHDVQFFDLRLLFLLTALRTDVRQQLFQELQGVRLLTRALELTLGMTEGERHPELLPPQETERAMEILKVLFNITFDSIKREVDEEDAALYRHLGTLLRHCVMLAAAGDRTEELHGHAVNLLGNLPVKCLDVLLTLEPHEGSLEFLGVNMDVIRVLLSFMEKRLHQTHRLKESVAPVLSVLTECARMHRPARKFLKAQVLPPLRDVRTRPEVGELLRNKLVRLMTHLDTDVKRVAAEFLFVLCSESVPRFIKYTGYGNAAGLLAARGLMAGGRPEGQYSEDEDTDTDEYKEAKASI
modifications: left off: His6, N-terminal, state not stated

Key:
[1] = tested on: Gαt333–350; experiment: BLI: Ric8A1–492 and its mutants binding to biotinylated Gαt333–350; conditions: for binding to Gαt333–350 (in words): BLI; for Kd: BLI steady state
Procedure: (§1) An Octet RED96 system and streptavidin (SA)-coated biosensors (FortéBio, Menlo Park, CA) were used to measure association and dissociation kinetics for Gα peptides or the full-length Avi-tagged Gαt in relation to Ric8A1–492, Ric8A1–452, and Ric8A1–426. To obtain the Avi-tagged Gαt, Gαt was cloned into modified pET21a vector with the N-terminal His6-tag followed by the Avi tag and TEV cleavage site[59]. The Avi-tagged I340Q/N343H mutant of Gαt was prepared by QuikChange protocol. BL21(DE3) cells for expression of the Avi-tagged Gαt were grown in 2TY media supplemented with biotin (10 mg/liter), induced at OD600 of 0.6 with 50 µM IPTG and further grown overnight at 16 °C. Binding studies were performed in 20 mM Tris, 150 mM KCl, 5% glycerol, 1 mM TCEP, 0.5 mg/ml BSA, pH 8.0. All steps were performed at 26 °C, with biosensors stirred into 0.2 ml of sample in each well at 1000 rpm, and at a data acquisition rate of 5.0 Hz. N-terminally biotinylated Gαt333–350, Gαs363–380, C1 peptide and C2 peptide were loaded onto SA sensors at a concentration of 0.05, 0.05, 0.005, and 0.01 mg/ml for 40–90 seconds. Data for association and dissociation phases of the assay were collected as shown in Fig. 1b and Supplementary Figs. 8, 11, 12, and 14. To correct for baseline drift and non-specific binding, reference sensors lacking bound Gα peptide were used in the BLI assays with Ric8A proteins at the highest concentrations. Kinetic data fitting was performed using FortéBio Data Analysis software 10.0. For each concentration of Ric8A1–492, dissociation rate constant (kd) values were calculated from the corresponding dissociation phases of the curves. These kd values were used to calculate the association rate constant (ka) values from the association phases for each concentration according to the equation1 ka=kobserved-kd∕Ric8A1-492 The average ka and kd were calculated as means of the individual ka and kd values for all curves. Equilibrium dissociation constant KD was calculated as mean kd/mean ka. Steady-state data fitting was performed using the GraphPad Prism 7 software with the equation for one site specific binding.

[2] = DSF thermostability of Ric8A constructs and Ric8A1–492 mutants (protein alone); format: physicochemical, bovine; conditions: for Tm: Sypro Orange, protein alone 0.5 mg/ml, 20 mM Tris-HCl pH 7.5, 150 mM KCl, 5% glycerol, 1 mM TCEP, 1 °C/minute, mean ± SD (n = 3)
Procedure: Stabilities of Ric8A constructs with and without peptide ligands were assessed using differential scanning fluorimetry (DSF), in which an increase in fluorescence of the Sypro Orange dye is measured. Ric8A1–492, Ric8A1–452 and Ric8A1–426 in 20 mM Tris-HCl (pH 7.5) buffer containing 150 mM KCl, 5% glycerol, and 1 mM TCEP with and without peptide were used at a final concentration of 0.5 mg/ml and were supplemented with a 1000-fold dilution of Sypro Orange dye (Invitrogen). Temperature was increased at 1 °C/minute and fluorescence signals were recorded using real-time PCR (C1000 Touch thermal cycler, Bio Rad), with the cycler set to FRET mode and the excitation wavelength set at 450–490 nm and the emission wavelength at 560–580 nm.

[3] = tested on: Gαt; experiment: BLI: Ric8A1–492 and its mutants binding to full-length Avi-tagged Gαt
Procedure: as §1

[4] = tested on: Gαi; experiment: GTPγS binding to Gαi (GDP/GTPγS exchange, GEF activity of Ric8A constructs); format: biochemical; conditions: for Rate of GDP/GTPγS exchange reaction on Gαi: same conditions
Procedure: The rates of GTPγS binding to Gαi in the absence or presence of Ric8A1–492 (Ric8A1–452) were measured by following the increase in fluorescence of Gαi tryptophan. Gαi (1 µM) was mixed with GDP (1 µM) in a fluorescence cuvette, in 20 mM Tris-HCl (pH 8.0) buffer containing 150 mM NaCl, 5% glycerol, 1 mM TCEP and 10 mM MgCl2, and incubated for 2 min. The binding reaction was initiated by addition of Ric8A1–492 or Ric8A1–452 (1 µM each) and/or and GTPγs (10 µM). Fluorescence at 340 nm was monitored with the excitation set at 295 nm. Data were fit to an equation for one phase association using the GraphPad Prism 7.05 software.

[5] = source data, experiment 1, read-out: KD (uM), Gαt333-350
[6] = source data, experiment 2, read-out: KD (uM), Gαt333-350
[7] = source data, experiment 3, read-out: KD (uM), Gαt333-350
[8] = source data, mean of replicates, read-out: Mean KD, Gαt333-350
[9] = DSF, protein alone, source data, mean of replicates
[10] = DSF, protein alone, source data, replicate 1
[11] = DSF, protein alone, source data, replicate 2
[12] = DSF, protein alone, source data, replicate 3
[13] = DSF, protein alone, source data, replicate 4
[14] = BLI steady state, source data, experiment 1, read-out: KD (uM), Gαt
[15] = BLI steady state, source data, experiment 2, read-out: KD (uM), Gαt
[16] = BLI steady state, source data, experiment 3, read-out: KD (uM), Gαt
[17] = BLI steady state, source data, mean of replicates, read-out: mean KD, Gαt

Molecule | binding to Gαt333–350 (in words) [1] | Kd [1, 5] [µM] | Kd [1, 6] [µM] | Kd [1, 7] [µM] | Kd [1, 8] [µM] | mean Tm [2, 9] [C] | Tm (C ) [2, 10] [C] | Tm (C ) [2, 11] [C] | Tm (C ) [2, 12] [C] | Tm (C ) [2, 13] [C] | binding to Gαt (in words) ([3]; BLI) | Kd [3, 14] [µM] | Kd [3, 15] [µM] | Kd [3, 16] [µM] | Kd [3, 17] [µM] | Tm ([2]; DSF) [°C] | also measured
B1 | severely impaired the interaction | 23.8 | 26.9 | 26.8 | > 10 | 45.6 | 45.57 | 45.54 | 45.74 | 45.49 | severely reduced affinity | 11.2 | 11.5 | 15.1 | > 10 |  | Kd ([1]; mean ± SD, n = 3, ND – not detectable, read-out: KD (μM) Gαt333–350): > 10 µM; Kd ([3]; BLI steady state, mean ± SD, n = 3, ND – not detectable, read-out: KD (μM) Gαt): > 10 µM; Kd ([3]; BLI, representative curve (Fig. 3g), read-out: KD, steady-state binding curve, Gαt): > 10 µM
B2 | ablated the binding |  |  |  |  | 46.7 | 46.78 | 46.59 | 46.65 | 46.83 | no Gαt binding was detected |  |  |  |  |  | 
B3 | severely impaired the interaction | 2.04 | 1.89 | 1.45 | 1.8 | 45.6 | 45.84 | 45.62 | 45.65 | 45.38 | severely reduced affinity | 2.04 | 1.84 | 1.66 | 1.8 |  | Kd ([1]; source data, experiment 4, read-out: KD (uM), Gαt333-350): 1.89 µM
B4 |  |  |  |  |  |  |  |  |  |  |  |  |  |  |  | 36.5 ± 1.1 | mean Tm ([2]; Suppl Fig 14B DSF, mean of 3 experiments, SD 1.1): 36.5 C
B5 |  |  |  |  |  |  |  |  |  |  |  |  |  |  |  | 45.5 ± 0.1 | Tm ([2]; DSF, listed as Ric8A1-452): 45.5 °C; Rate of GDP/GTPγS exchange reaction on Gαi, mean ([4]; Gαi 1 µM, GDP 1 µM, Ric8A construct 1 µM, GTPγS 10 µM, 20 mM Tris-HCl pH 8.0, 150 mM NaCl, 5% glycerol, 1 mM TCEP, 10 mM MgCl2, tryptophan fluorescence ex 295 nm, em 340 nm, one phase association fit, mean): 0.03238; Rate of GDP/GTPγS exchange reaction on Gαi ([4]; replicate 1): 0.03221; Rate of GDP/GTPγS exchange reaction on Gαi ([4]; replicate 2): 0.04368; Rate of GDP/GTPγS exchange reaction on Gαi ([4]; replicate 3): 0.02126
